{"source": "patent US20140341888A1", "target": "EGFR-AP fusion protein (UniProt P00533)", "assay": "SPR (BIAcore), EGFR-AP immobilized, antibody 1.5 nM to 100 nM", "data": [{"substance": "IMC-11F8 Fab", "values": [{"measurement": "Kd", "value": 1.78, "unit": "nM"}, {"measurement": "koff", "value": 0.00367, "unit": "s⁻¹"}, {"measurement": "kon", "value": "2.29e+06", "unit": "M⁻¹ s⁻¹"}]}]}
